According to US20250213710A1 (PHENOMIC AI, published 2025):

B1: CTHRC1S-M5 (AB987) (antibody, V domains shown)
VH: EVQLVESGGGLVTPGGSLRLSCAASGFTFSTYSMNWVRQAPGKGLEWVSSISGSSGHIYYADSVRGRFTISRDNAKNSLYLQMNSLRAEDTAVYYCASMHYYYYLDVWGKGTTVTVSS
VL: QAVVTQESALTTSPGETVTLTCRSSTGTVTTSNYVTWVQEKPDHLFTGLIGATNNRAPGVPARFSGSLIGDKAALTITGAQTEDEAIYFCALWYSNHWVFGGGTKLTVL
notes: Monoclonal antibody purified from a hybridoma of a humanized transgenic mouse immunized with rhCTHRC1; also called CTHRCIS-M5; anti-CTHRC1 clone M5
B2: CTHRC1S-M11 (AB989) (antibody, V domains shown)
VH: QVTLRESGPALVKPTQTLTLTCTFSGFSLSTNVMCVSWIRQPPGKALEWLALIDWDDDKYYSTSLKTRLTISKDTSKNQVVLTMTNMDPVDTATYYCARTGITGTHYYYYYMDVWGKGTTVTVSS
VL: AIQMTQSPSSLSASVGDRVTITCRASQGIRNDLGWYQQKPGKAPKLLIYAASSLQSGVPSRFSGSGFGTDFTLTISSLQPEDFATYYCLQDYNYPWTFGQGTKVEIK
notes: Monoclonal antibody purified from a hybridoma of a humanized transgenic mouse; also called CTHRCIS-M11
B3: CTHRC1S-M14 (AB991) (antibody, V domains shown)
VH: EVQVVESGGGLVQPGGSLRLSCAASRFTFSNYWMSWVRQAPGRGLEWVANIKQDGSEKYYVDSVKGRFTISRDNAKNSLYLQMNSLRAEDTAVYYCAREGGYCSDTRCFFYMDVWGKGTTVTVSS
VL: DIQMTQSPSTLSASVGDRVTITCRASQSIISWLAWYQQKPGKAPKLLIYKASSLEGGVPSRFSGSGSGTDFTLTISSLQPDDFATYYCQQYNSYSRTFGQGTTVEIK
notes: Monoclonal antibody purified from a hybridoma of a humanized transgenic mouse; also called anti-CTHRC1 clone M14

Experiments:
[1] = target: integrin β1 on ovarian cancer cells (SKOV3) (human) (UniProt P05556); experiment: cell-based or functional assay
Chain of integrin β1 on ovarian cancer cells (SKOV3) (human) (P05556 21-798): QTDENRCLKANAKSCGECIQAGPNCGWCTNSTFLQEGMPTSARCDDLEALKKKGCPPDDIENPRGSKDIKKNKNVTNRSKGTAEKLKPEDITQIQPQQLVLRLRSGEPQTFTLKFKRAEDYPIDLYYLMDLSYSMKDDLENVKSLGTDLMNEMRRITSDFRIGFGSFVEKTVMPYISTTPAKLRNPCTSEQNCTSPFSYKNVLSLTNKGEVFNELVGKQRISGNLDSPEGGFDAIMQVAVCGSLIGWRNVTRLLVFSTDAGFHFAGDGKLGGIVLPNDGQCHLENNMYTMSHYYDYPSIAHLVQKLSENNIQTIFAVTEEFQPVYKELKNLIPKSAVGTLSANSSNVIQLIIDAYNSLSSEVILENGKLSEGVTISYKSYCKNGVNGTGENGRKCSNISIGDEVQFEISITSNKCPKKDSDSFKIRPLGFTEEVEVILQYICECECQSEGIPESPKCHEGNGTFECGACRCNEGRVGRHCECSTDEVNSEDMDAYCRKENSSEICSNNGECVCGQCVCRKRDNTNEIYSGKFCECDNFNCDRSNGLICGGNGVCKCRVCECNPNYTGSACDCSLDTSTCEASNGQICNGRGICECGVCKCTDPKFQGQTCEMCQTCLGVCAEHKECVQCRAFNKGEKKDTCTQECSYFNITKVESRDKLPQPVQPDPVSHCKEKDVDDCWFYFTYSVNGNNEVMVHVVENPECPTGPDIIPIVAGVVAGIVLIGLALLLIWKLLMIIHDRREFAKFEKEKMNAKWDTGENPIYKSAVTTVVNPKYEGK

[2] = target: integrin αV on ovarian cancer cells (SKOV3) (human) (UniProt P06756); experiment: cell-based or functional assay
Chain of integrin αV on ovarian cancer cells (SKOV3) (human) (P06756 31-1048): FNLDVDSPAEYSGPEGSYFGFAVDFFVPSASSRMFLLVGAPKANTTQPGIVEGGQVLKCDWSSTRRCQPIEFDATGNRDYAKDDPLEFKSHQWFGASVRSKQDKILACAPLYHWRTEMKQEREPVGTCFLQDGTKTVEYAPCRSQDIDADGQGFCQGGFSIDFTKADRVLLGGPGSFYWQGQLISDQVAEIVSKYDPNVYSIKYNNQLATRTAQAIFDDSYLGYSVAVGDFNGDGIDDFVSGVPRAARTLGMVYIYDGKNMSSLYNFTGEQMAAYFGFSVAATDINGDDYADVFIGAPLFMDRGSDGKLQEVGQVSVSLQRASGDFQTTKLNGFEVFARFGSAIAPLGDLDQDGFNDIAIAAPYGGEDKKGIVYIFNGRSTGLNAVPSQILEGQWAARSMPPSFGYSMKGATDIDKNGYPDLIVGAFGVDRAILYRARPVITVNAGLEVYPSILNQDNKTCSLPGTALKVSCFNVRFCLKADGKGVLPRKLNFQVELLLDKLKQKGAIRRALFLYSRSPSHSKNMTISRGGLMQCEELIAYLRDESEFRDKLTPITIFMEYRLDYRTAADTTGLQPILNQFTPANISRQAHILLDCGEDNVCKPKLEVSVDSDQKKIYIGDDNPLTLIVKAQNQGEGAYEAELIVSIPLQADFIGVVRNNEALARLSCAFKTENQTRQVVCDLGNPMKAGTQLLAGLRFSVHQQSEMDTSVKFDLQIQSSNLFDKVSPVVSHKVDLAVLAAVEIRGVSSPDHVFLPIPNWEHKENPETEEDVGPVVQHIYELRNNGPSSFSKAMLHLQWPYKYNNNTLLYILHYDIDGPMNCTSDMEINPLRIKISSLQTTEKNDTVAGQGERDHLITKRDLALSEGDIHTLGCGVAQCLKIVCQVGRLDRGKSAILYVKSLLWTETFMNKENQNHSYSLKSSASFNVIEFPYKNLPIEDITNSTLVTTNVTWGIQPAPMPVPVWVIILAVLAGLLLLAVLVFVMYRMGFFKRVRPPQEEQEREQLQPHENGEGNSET

[3] = target: T1, mouse CTHRC1 (mouse, UniProt Q9D1D6 33-245, limits assumed); experiment: binding EC50 on muCTHRC1 (assay not named)
T1 construct: also called muCTHRC1
T1 sequence (Q9D1D6 33-245 limits assumed): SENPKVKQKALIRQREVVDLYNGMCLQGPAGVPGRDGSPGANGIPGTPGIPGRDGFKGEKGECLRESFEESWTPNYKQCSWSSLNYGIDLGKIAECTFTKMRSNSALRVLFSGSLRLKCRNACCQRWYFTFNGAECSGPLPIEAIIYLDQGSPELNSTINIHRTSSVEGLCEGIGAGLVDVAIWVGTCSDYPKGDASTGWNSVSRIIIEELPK

[4] = target: T2, rat CTHRC1 (rat, UniProt Q8CG08 33-245, limits assumed); experiment: binding EC50 on rat CTHRC1 (assay not named)
T2 sequence (Q8CG08 33-245 limits assumed): as the sequence (Q9D1D6 33-245 limits assumed) above

[5] = target: recombinant human CTHRC1 (Collagen Triple Helix Repeat Containing 1) (human) (UniProt Q96CG8); experiment: binding EC50 on huCTHRC1 (assay not named)
Chain of recombinant human CTHRC1 (Collagen Triple Helix Repeat Containing 1) (human) (Q96CG8 31-243): as the sequence (Q9D1D6 33-245 limits assumed) above, with N3I, V6G, L11Q, I12L, L155M counted along it

[6] = target: recombinant human CTHRC1 (Collagen Triple Helix Repeat Containing 1) (human) (UniProt Q96CG8); experiment: cell-based or functional assay
[7] = target: T1, mouse CTHRC1; experiment: assay not named (Table 2 EC50 columns show n/a)
[8] = target: T2, rat CTHRC1; experiment: assay not named (Table 2 EC50 columns show n/a)

Molecule | cell adhesion of ovarian cancer cells to CTHRC1 after 1 hour with 100 nM integrin β1 antibody [1] | cell adhesion of ovarian cancer cells to CTHRC1 after 1 hour with a combination of integrin β1 antibody and integrin αV antibody [1] | decrease in cell adhesion of ovarian cancer cells to CTHRC1 after 1 hour with 100 nM integrin β1 antibody [1] | cell adhesion of ovarian cancer cells to CTHRC1 after 1 hour with 100 nM integrin αV antibody [2] | cell adhesion of ovarian cancer cells to CTHRC1 after 1 hour with a combination of integrin β1 antibody and integrin αV antibody [2] | decrease in cell adhesion of ovarian cancer cells to CTHRC1 after 1 hour with 100 nM integrin αV antibody [2] | EC50 [3] | EC50 [4] | EC50 [5] | blocking of cell adhesion to CTHRC1 (cell adhesion assay) [6] | binding result [7] | binding result [8]
recombinant human CTHRC1 (Collagen Triple Helix Repeat Containing 1) (from UniProt Q96CG8 31-243) | 2 fold | 2 fold | 75% | 2 fold | 2 fold | 40% | – | – | – | – | – | –
B1 | – | – | – | – | – | – | 0.26 nM | 1.73 nM | 1.85 nM | > 50% | – | –
B2 | – | – | – | – | – | – | – | – | 9.76 nM | > 50% | no binding | no binding
B3 | – | – | – | – | – | – | 0.94 nM | 0.05 nM | 0.05 nM | – | – | –
